In patent US20250145691A1 (University of Texas, published 2025):

Legend:
NTD = target: T1, NTD (UniProt P0DTC2 14-303); test: ELISA and biolayer interferometry (BLI)
T1 construct: domain: NTD; also called N-terminal domain

RBD = RBD (SARS-CoV-2, UniProt P0DTC2 319-591); test: ELISA and biolayer interferometry (BLI)

B1: antibody SC45 (antibody, V domains shown)
VH: QVQLQESGPGLVKSSETLSLTCTVSGGSISSYYWSWIRQPPGKGLEWIGCIYSSGSTNYNPSLKSRVTISVDSSKNQFSLRLNSVTAADTAVYYCARHKGTDFWSGYSFTPRGGWFDPWGQGALVSVSS
VL: DIQMTQSPSSLSASVGDRVTITCRASQSISSYLNWYQQKPGKAPKLLIYGASNLQSGVPSRFSGSGSETDFTLTISSLQPEDFASYYCQQSHSIPVTFGQGTKLEIK
binding result (NTD): no binding | binding result (RBD): no binding
